Experiment: soluble on expression in E. coli; label from the status in PepcDB or PDB records

Sequence	soluble on expression in E. coli
MDLSEDQIRGLPHHELLGHFLQMREEFNEFQTSSAEIEKMMDSELDDLKTQLKKAETRVQQMTTEQIRNKDRQDDSRVQFAQVEEQLRRENSHLHEQCESQRERIRKLEQRNDVLETSERNKEYLASDLGSKLDHAIEKIAMLESELYERQVAAEEMHRLREEQLRTTERPRLIVEPLRNDPEILPDEPSPGPSKEEFKMSSEDVFMEDVQHHEDVRMEETIAKIDEVRIDDNKNIQEKSQRVSTGTGAGACINRIVKDLMTKVERLDSILSTIRVSNNSSNNNSSHLTTTRA	not soluble
MKIIVQKFGGTSVKDDKGRKLALGHIKEAISEGYKVVVVVSAMGRKGDPYATDSLLGLLYGDQSAISPREQDLLLSCGETISSVVFTSMLLDNGVKAAALTGAQAGFLTNDQHTNAKIIEMKPERLFSVLANHDAVVVAGFQGATEKGDTTTIGRGGSDTSAAALGAAVDAEYIDIFTDVEGVMTADPRVVENAKPLPVVTYTEICNLAYQGAKVISPRAVEIAMQAKVPIRVRSTYSNDKGTLVTSHHSSKVGSDVFERLITGIAHVKDVTQFKVPAKIGQYNVQTEVFKAMANAGISVDFFNITPSEIVYTVAGNKTETAQRILMDMGYDPMVTRNCAKVSAVGAGIMGVPGVTSKIVSALSEKEIPILQSADSHTTIWVLVHEADMVPAVNALHEEFELSK	soluble
MLLRFIIGLSSVLLVTGLFNPLLPTLGDYLLTDQQVQKYFSVAGPSNLAIGTCNSVPFASAQAGFASSVGLAPTTTWREANILTNATIGMIDQGMDQLAAVCQARQQFVQTLGAAYDTCTDRFYLISLGNTDWWNVMQYTHLMKHLEFICSTGFDVYQSNIDCIRKGETTDGNQYRACFYKFNATVNANPNNFCGATETFIGCIKDFFDTECNLYVGWMQCELERIGFAYDCYGLSC	not soluble
MNNDKLQRMVENLSEEKFGRTFRHCAYFNKRLRTTGGRYLLKSHDIEINPKQYEHYGEDAVVKIILHELCHYHLHIAGKGYQHKDQDFKRLSQQVGAPRFCNSIESYQQRANYEYYCTKCHAKYIRIRKVDTNRMRCGHCNGKLRMKRQLK	not soluble
MIDVRKYIDNAALKPHLSEKEIEEFVLKSEELGIYAVCVNPYHVKLASSIAKKVKVCCVIGFPLGLNKTSVKVKEAVEAVRDGAQELDIVWNLSAFKSEKYDFVVEELKEIFRETPSAVHKVIVETPYLNEEEIKKAVEICIEAGADFIKTSTGFAPRGTTLEEVRLIKSSAKGRIKVKASGGIRDLETAISMIEAGADRIGTSSGISIAEEFLKRHLILEHHHHHH	soluble
MGSDKIHHHHHHMNWDDIKIFLEVARAERLSTAAKRLTMDASTVSRRLHKLEESIATKLFDRTQDGHVLTPDGEMLLTSACKMEQDAQHALSSIHNNNEENCGLVRIGVTEALGNFFVSPNLLTLQQQHPSIDVHLLLFSRYVKISRNEADIAIAVERPKSTSMIVSKLCDYKLQLYVHQDYLDHNLKQYPQGITLDNLAEHKWVTYVDNLIFTDQLSYIKELDRYLSGELKANFSSTSIISQYFAIKSGLGIGILPCFLADQDKSLIKLHSQDITISRSFWLVTHPESKRLSHVNTVWQYLKQLVLEHAELLNPKE	not soluble
MSLAQKISATPAAGAQMTLAQADGIAFRELSFPEALKRAEVEDKLLFVDCFTTWCGPCKRLSKVVFKDSLVADYFNRHFVNLKMDMEKGEGVELRKKYGVHAYPTLLFINSSGEVVYRLVGAEDAPELLKKVKLGVESGGLSGLKKRYEAGDRDLAFICGYINALSAANREQEAGKVAADFLQGSEQKMLEDEDYFLVFYYYVHDVNSSAFQYAVNHKKEITDKFPRQAASLDRRLLEDWIAGSYAYLKVDESNHCTFDEQGLDAYVAKMKQMNVAEADMIGESLRLSRDGIMKQWDSFVKRGDKILASHTILGDEGHLLQWVNWLNKECADMSLREKAAQWCDKACEELIKKNEEIKKNLPPGAIPAISMVDHKGQLLQVAEKLRKLMQQSEGHHHHHH	soluble
MITMKHVILVGDGMADYPLDELDGKTPLQVADKPNMDQLAGMGACGLLRTVPEGMEAGSDVANLSIMGYDPRRYYTGRGPLEAASIGVELGDDDVAFRCNLINADERIVDFNAGHIETAEASSLIDALNHELETRGRFYAGVSYRNLFVIEGRGYTSVRVEPPHDIVGESVAAHLPSGSEEADHIRELMLESAGVLRSHEVNLKRESMGKRPATMIWLWGQGLRPSMEPFSERYGIRGATITAVDLIKGLGVYAGLENIHVPGATGYLDTDYRAKGRYAAGALEEYDFLYVHVEAPDEAGHAGDAEEKIRAIENIDRFVLGRLLDALSDHEHRIAVLPDHPTPIEIRTHVPDPVPCILAGDGVDADQVKSYDEFTVREGSLGTWEAHRLMEIMMDPAARLRQLEHHHHHH	not soluble
GFPSPAADYVEQRIDLNQLLIQHPSATYFVKASGDSMIDGGISDGDLLIVDSAITASHGDIVIAAVDGEFTVKKLQLRPTVQLIPMNSAYSPITISSEDTLDVFGVVIHVVKAATR	soluble
MDNPVTFSDITLLNTLATCANMTTDEVFKDFKIMANKKILKNHKYEIYYSESEKSWRTYLPDETKPNKRRPVKRKSKENLEKEIIRFYIEKQKAENRQNVTLEELYAEWLLYKRDYTSVKAKTIQEYVSEWNRFFKDTELVKMKIGEIKPITLIRFFREATKDRQFTHKRVSNARSVLNGIMSYAIEEEIISHNPVSDVNFKQFTYKPVEVQSDNVFSRDDTHKLLNYLRCIIEPYSLAIQLSFYLFIRVGETKAIRWEDIDYNNRLVYFHRQATCERTLNDDLTFSSRKVKVVNQMKGNTSHGFRKQFLTDEALKILHKAKELNPNGIYVFEPNGEIMTTDSFNRRLKKYCKEAGVPYHSSHKIRFYNASTAFDGNNLTTLSYLMGHSETATTLHYLRNVNKRKNDRLAFQNLGISS	not soluble
MSLQEIKGLSFYHQDWEVYCSNTGTCRAAGYQSDDGSQQPASILLTREAGSKQPVQAEFALAGDDQETFAANKIKNIRFYVNGKDLGTVSVKGVDSPLMGKLSTAQVNGLLQQATQKVDIVFKNNHYVWKISDSGMTAALLKVDDFQKRIGTVGALVKKGKSDDSKVLMPQPKLVIKKVKTADQPYLTLNPKNKQYASLYKLLMAAQPTPKEDGFCEGVYDFDSDAITAQSIELYKLTNNKVLATTLCWRGAYNEGYGAWVLNQSLTGPATYITQSASDIASGIISSAQKGRGIGDCWMSQSWIWNGQKYVQNQDMWTGMCKGLAAGGVWELDQIEAVVKEGHHHHHH	soluble
MGSDKIHHHHHHMKQIGIIGCGWFGLPLAQALKQLGHKVIGTKRSIEGCEQLASLGITACPLDLNDDIFYNEAFANNTFANNINELLECQVLVINIPPGLRKKAGKAESRYLEQLSNLVHFIGPRGYQKLVFISTTGVYPAGDDAELPLSEADAKAHNDASEILLNAEALFAPMDNSCILRFAGLVGPNRHPGRFFAGKTGISGANVAVNLVHLDDCIGAVIKVINADKTAPVYNIVAPEHPSRGEFYPLATTHLGLVAPVFNQEVMPTKVISGALICQQLGFIYQYPDPLKMLYAC	not soluble
MGGSHHHHHHGMASETGPEDPSSMPEESSPRRTPQSIPYQDLPHLVNADGQYLFCRYWKPTGTPKALIFVSHGAGEHSGRYEELARMLMGLDLLVFAHDHVGHGQSEGERMVVSDFHVFVRDVLQHVDSMQKDYPGLPVFLLGHSMGGAIAILTAAERPGHFAGMVLISPLVLANPESATTFKVLAAKVLNLVLPNLSLGPIDSSVLSRNKTEVDIYNSDPLICRAGLKVCFGIQLLNAVSRVERALPKLTVPFLLLQGSADRLCDSKGAYLLMELAKSQDKTLKIYEGAYHVLHKELPEVTNSVFHEINMWVSQRTATAGTASPP	not soluble
AHHHHHHGSSMELFEVHEGKAKVLVPKAKTIYDSPVFYNPRMAPNRDVVVLLLNVLKPKIVLDALSATGIRGIRFALETPAEEIWMNDINELAYELMKKNVLLNFKGTLKENAKRAIFEGEKTIVINNDDANRLMAEKHRYFHFIDLDPFGSPMEFLDTALRSVKRKGILGVTATDGAPLCGAHPKACLRKYLAVPLRGELCHEVGTRILVGVIARYAAKYDLGMEVLLAYYKDHYFRAFVKLKDGAKKGDETLENLGYVYFDEKTGRFEVEKSFLSTRPNAYGPLWLGPLKNEKVVGEMLELLVSGFEVANYREVLKLLHMLHEELDIPLFYDTHALGKRLKIEPKKLGEIIKELKSMGYEATRTHFSPTGIKTNAPYEVFVEVMRKN	soluble
QRDDVTGVQTLAGNLDPTQWTKTKSLSPLSGSLDPLDYTQRLALIPQRHFSGAGDEMIPTELAERYNRLLGNTACSQLIIVAGATHETGWEEAWKVWRGL	not soluble
MTMKEKKLKIDISGVDPICNKSKGDDFYDVVNRQLSRRSFLKGGLGVAVSSFMLSPLMAGCTSSKGTARSSAGLGFQAIAGNRTDVVDVPVGYRAQPFLPWGTPLVPGAGEFKTDASNSALDQARQVGSHHDGMHFFPIDVKEGGASSKEGLLVMNHEYVDPQILHASFSPNAPRPQQEVLKEMMAHGVSVAHIIRKPDGEWQLVEGSPYNRRITASTPMQMSGPVAGHDKLVTRFSPDGTKTRGTINNCSHGHTPWGTYLTCEENWAGCFMNDDDTHPREHERYGVNRENSRYYWETATPGLDETLRFNASSTGSTAADDYRNEPNHFGWIVEIDPFNAKSTPVKRSMLGRFAHEGIVFAPAVEGEPLVAYSGDDSRFEYIYKFVSAKPYYKATASGELLNEGTLYVAQFNDDGTGRWLPLDIENSEFQAKASEAGVGFHSQADVLLNTRLAADVMGATKMDRPEWGAVHPTTKEVYFSLTNNTRRTEVQTNAVNPRAENAYGHIVRWSEDNQQSAESFHWDIFLMGGEAGTRTPNAEGKDLTLTSNNQFACPDGLWFDHRGTLWIQTDMSGELLSEGSFGNNGMYAANPESGELKRFLVGPVDCEITGVVTTPDGKTMFVNVQHPGDRLAPGKFSLEHHHHHH	soluble
AIAAEPIELLCWGGDWDLPSVQTDSLTVLAYAKFAGAELTVKFVDWTWRTITASVPQIHYEGTTVTEPTQILNFLRKQRFNADFELTAKQGADTMAYIALLEEKLRPALLHTFWVDAENYANLTRPWFTSHSPFPLNFFVPGRQASLALSRILLTKAESPLLNITEVEGKIYSEAKECLNLLSHRLGNFNFFFGDTPTSLDAFVFGHIAPLIKAPLPSGQLQKHLNQLDNLCQFCNTILKNYFTDATAEKRMDCSPTVAHDFVDANLQKLTQLVNKESNLIEKMDDNLRSSPQHRPHRHEAKPSAPASDRNSTPA	soluble
MGSDKIHHHHHHMVKLLLICLATIVMISCGSEQEKLTVYIPDTCTDTLQYEIYLPEEEGLNIFYDLCVTDSFCAFLDTRNDTLLKIFTATIPPALVGLGMKGEGPDDFLFPFFEKSIGREGKGKLSFIELNSWNKKIVAIHSAASPAPVAVSVVEAQQLPEMPVVRDYNETDSCVYGIDVDMQHGLFFIYDKHTARVKTVDYHRDIRSGYPEGHLSYLYESCLMVNQDAKAACMGLLNLNSLCFYDLKGNLMKEIVIGKELKSPEYDPEFLDFPNAPKYFISLCGTPNYLYALYNGFPGTSGKSKIMVFTWQGAPVAIYQTDVKLERIAVAPSGRYVLGLNITEEGGSDVLKFEL	not soluble
